Data taken from article PMC10397247.

Key:
Test in all cases: two-hybrid library CCNG1;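 also: natural log of median RNA to DNA barcode read ratio; higher means stronger binding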
4H3185-bH = target: T1, 4H3185-bH
T1 chain: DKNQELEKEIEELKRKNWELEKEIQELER

4H717-bH = target: T2, 4H717-bH
T2 chain: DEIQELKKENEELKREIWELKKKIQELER

4H454-bH = target: T3, 4H454-bH
T3 chain: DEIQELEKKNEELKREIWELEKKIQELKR

4H797-bH = target: T4, 4H797-bH
T4 chain: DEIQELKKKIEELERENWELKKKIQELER

4H3354-bH = target: T5, 4H3354-bH
T5 chain: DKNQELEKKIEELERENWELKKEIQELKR

4H883-bH = target: T6, 4H883-bH
T6 chain: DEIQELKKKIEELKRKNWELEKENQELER

4H967-bH = target: T7, 4H967-bH
T7 chain: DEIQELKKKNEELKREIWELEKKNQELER

4H2667-bH = target: T8, 4H2667-bH
T8 chain: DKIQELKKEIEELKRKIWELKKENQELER

4H2442-bH = target: T9, 4H2442-bH
T9 chain: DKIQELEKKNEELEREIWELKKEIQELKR

4H3855-bH = target: T10, 4H3855-bH
T10 chain: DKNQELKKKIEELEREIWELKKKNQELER

4H883-bA = target: T11, 4H883-bA
T11 chain: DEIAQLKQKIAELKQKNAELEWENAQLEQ

4H908-bH = target: T12, 4H908-bH
T12 chain: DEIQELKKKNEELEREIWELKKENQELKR

4H953-bH = target: T13, 4H953-bH
T13 chain: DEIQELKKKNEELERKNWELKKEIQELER

4H331-bH = target: T14, 4H331-bH
T14 chain: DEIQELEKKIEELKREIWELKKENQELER

4H918-bH = target: T15, 4H918-bH
T15 chain: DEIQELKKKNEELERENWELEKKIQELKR

4H568-bH = target: T16, 4H568-bH
T16 chain: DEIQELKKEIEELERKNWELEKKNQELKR

4H3112-bH = target: T17, 4H3112-bH
T17 chain: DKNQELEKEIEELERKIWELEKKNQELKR

4H2729-bH = target: T18, 4H2729-bH
T18 chain: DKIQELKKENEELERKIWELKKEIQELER

4H2618-bH = target: T19, 4H2618-bH
T19 chain: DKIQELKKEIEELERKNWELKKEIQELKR

4H687-bH = target: T20, 4H687-bH
T20 chain: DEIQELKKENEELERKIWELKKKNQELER

4H72-bH = target: T21, 4H72-bH
T21 chain: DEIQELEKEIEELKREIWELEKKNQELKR

4H2576-bH = target: T22, 4H2576-bH
T22 chain: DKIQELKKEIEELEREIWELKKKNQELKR

4H4001-bH = target: T23, 4H4001-bH
T23 chain: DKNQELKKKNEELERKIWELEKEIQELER

4H754-bH = target: T24, 4H754-bH
T24 chain: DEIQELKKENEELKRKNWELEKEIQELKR

4H338-bH = target: T25, 4H338-bH
T25 chain: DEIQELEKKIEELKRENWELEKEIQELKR

4H3782-bH = target: T26, 4H3782-bH
T26 chain: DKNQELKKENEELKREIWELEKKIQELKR

4H3427-bH = target: T27, 4H3427-bH
T27 chain: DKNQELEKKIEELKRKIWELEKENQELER

4H3907-bA = target: T28, 4H3907-bA
T28 chain: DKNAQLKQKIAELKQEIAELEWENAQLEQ

4H575-bH = target: T29, 4H575-bH; settings: mean of both orientations
T29 chain: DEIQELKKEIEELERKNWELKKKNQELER

DKIQELEKKNEELEREIWELKKEIQELKR [4H2442-bH]
interaction score (4H3185-bH): -0.571 | interaction score (4H717-bH): 0.313 | interaction score (4H454-bH): 1.64 | interaction score (4H797-bH): -0.629 | interaction score (4H3354-bH): 0.0703 | interaction score (4H883-bH): 0.442 | interaction score (4H967-bH): 0.424 | interaction score (4H2667-bH): -0.37 | interaction score (4H2442-bH): 1.25 | interaction score (4H3855-bH): -1.1 | interaction score (4H883-bA): -2.1 | interaction score (4H908-bH): -0.628 | interaction score (4H953-bH): 0.587 | interaction score (4H331-bH): -0.168 | interaction score (4H918-bH): -0.517 | interaction score (4H568-bH): -0.0562 | interaction score (4H3112-bH): -0.123 | interaction score (4H2729-bH): 1.77 | interaction score (4H2618-bH): 1.93 | interaction score (4H687-bH): -0.163 | interaction score (4H72-bH): -2.01 | interaction score (4H2576-bH): 0.27 | interaction score (4H4001-bH): -0.244 | interaction score (4H754-bH): -0.751 | interaction score (4H338-bH): 0.526 | interaction score (4H3782-bH): -0.566 | interaction score (4H3427-bH): -0.00664 | interaction score (4H3907-bA): -1.28 | interaction score (4H575-bH): 0.167
